{"source": "patent US20120064075", "proteins": {"B1": {"name": "murine chimera FIXGla-Egf1FVIIa (protein)", "chain": "MKHLNTVMAESPALITIFLLGYLLSTECAVFLDRENATKILTRPKRYNSGKLEEFVRGNLERECIEERCSFEEAREVFENTEKTTEFWKQYVDGDQCESNPCLNGGICKDDISSYECWCQVGFEGRNCEFSKNEQLICANENGDCDQYCRDHVGTKRTCSCHEDYTLQPDEVSCKPKVEYPCGRIPVVEKRNSSSRQGRRKRRKRIVGGNVCPKGECPWQAVLKINGLLLCGAVLLDARWIVTAAHCFDNIRYWGNITVVMGEHDFSEKDGDEQVRRVTQVIMPDKYIRGKINHDIALLRLHRPVTFTDYVVPLCLPEKSFSENTLARIRFSRVSGWGQLLDRGATALELMSIEVPRLMTQDCLEHAKHSSNTPKITENMFCAGYMDGTKDACKGDSGGPHATHYHGTWYLTGVVSWGEGCAAIGHIGVYTRVSQYIDWLVRHMDSKLQVGVFRLPLL"}}, "target": "type IV collagen"}
{"protein": "B1", "values": [{"measurement": "ELISA measurements of expressed chimera in blood 10 minutes after a bolus of FIX", "result": "a 4-fold increase in the chimeric protein was measured"}]}
